We go through three molecules from publication PMC10758017.

Assay [1] addresses T1, TGFβRI/TGFβRII receptor complex (mouse (endogenous in MFB-F11)) (UniProt Q64729).
T1 sequence 1: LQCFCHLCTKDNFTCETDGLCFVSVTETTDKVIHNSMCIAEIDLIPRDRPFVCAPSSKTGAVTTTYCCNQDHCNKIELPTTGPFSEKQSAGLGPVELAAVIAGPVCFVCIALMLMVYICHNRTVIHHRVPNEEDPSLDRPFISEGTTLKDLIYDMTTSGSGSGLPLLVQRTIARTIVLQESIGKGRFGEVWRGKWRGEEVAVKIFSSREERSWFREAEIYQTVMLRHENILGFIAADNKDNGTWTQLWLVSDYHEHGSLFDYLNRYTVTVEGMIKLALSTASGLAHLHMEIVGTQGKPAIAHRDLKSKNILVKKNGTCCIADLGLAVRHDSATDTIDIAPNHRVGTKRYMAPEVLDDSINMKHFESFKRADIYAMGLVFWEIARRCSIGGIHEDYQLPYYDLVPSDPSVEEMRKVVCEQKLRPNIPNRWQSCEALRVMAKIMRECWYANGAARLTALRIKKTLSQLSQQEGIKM
T1 sequence 2: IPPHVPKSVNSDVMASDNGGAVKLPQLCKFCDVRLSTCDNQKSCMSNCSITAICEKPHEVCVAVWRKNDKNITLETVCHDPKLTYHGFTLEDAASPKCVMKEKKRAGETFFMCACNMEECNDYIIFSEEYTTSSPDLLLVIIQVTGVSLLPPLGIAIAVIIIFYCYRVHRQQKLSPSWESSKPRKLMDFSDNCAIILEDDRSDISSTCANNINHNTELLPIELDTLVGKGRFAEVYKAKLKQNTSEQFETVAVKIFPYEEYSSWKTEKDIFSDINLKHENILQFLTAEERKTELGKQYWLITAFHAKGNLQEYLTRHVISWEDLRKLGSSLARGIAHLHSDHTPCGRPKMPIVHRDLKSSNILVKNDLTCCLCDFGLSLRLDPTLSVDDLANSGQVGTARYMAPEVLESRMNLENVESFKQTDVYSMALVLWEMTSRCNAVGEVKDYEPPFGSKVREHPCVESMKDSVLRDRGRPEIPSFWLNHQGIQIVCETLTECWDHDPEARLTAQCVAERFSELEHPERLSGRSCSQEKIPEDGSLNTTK

Assay [2] has as its target T1, TGFβRI/TGFβRII receptor complex (mouse (endogenous in MFB-F11)). This is another data set of the same source.
The target is the same in assay [3]. The source holds these as a separate data set.
Assay [4] has the same target. This is another data set of the same source.

In assay [1], DAAYCFRNV [peptide inhibitor 1.3 …] came in with a Smad4 mRNA, ddCt (qRT-PCR), IP at 50 μM against the reference inhibitor SB-525334 at 50 nM of -9.3. The molecule further registered a Smad2 mRNA, ddCt (qRT-PCR), IP at 50 μM against the reference inhibitor SB-525334 at 50 nM in assay [2] of -10.5. In assay [3], this molecule returned a Jun N-terminal kinase (JNK1) mRNA, ddCt (qRT-PCR), IP at 50 μM against the reference inhibitor SB-525334 at 50 nM of -13.4. This molecule came in with a Smad3 mRNA, ddCt (qRT-PCR), IP at 50 μM against the reference inhibitor SB-525334 at 50 nM in assay [4] of -9.5.

In the case of LDAAYCFRN [peptide inhibitor 1.2 …], the Smad4 mRNA, ddCt (qRT-PCR), IP at 50 μM against the reference inhibitor SB-525334 at 50 nM in assay [1] was -11.3. In assay [2], this molecule gave a Smad2 mRNA, ddCt (qRT-PCR), IP at 50 μM against the reference inhibitor SB-525334 at 50 nM of -12.2. Moreover, in assay [3], the Jun N-terminal kinase (JNK1) mRNA, ddCt (qRT-PCR), IP at 50 μM against the reference inhibitor SB-525334 at 50 nM is -15.3. In assay [4], the Smad3 mRNA, ddCt (qRT-PCR), IP at 50 μM against the reference inhibitor SB-525334 at 50 nM is -11.9.

For the molecule AYCFRNVQD [peptide inhibitor 1.5 …], the Smad4 mRNA, ddCt (qRT-PCR), IP at 50 μM against the reference inhibitor SB-525334 at 50 nM in assay [1] stood at 0.9. For the same molecule, in assay [2], the Smad2 mRNA, ddCt (qRT-PCR), IP at 50 μM against the reference inhibitor SB-525334 at 50 nM is -2.4. In assay [3], this molecule had a Jun N-terminal kinase (JNK1) mRNA, ddCt (qRT-PCR), IP at 50 μM against the reference inhibitor SB-525334 at 50 nM of -0.1. The Smad3 mRNA, ddCt (qRT-PCR), IP at 50 μM against the reference inhibitor SB-525334 at 50 nM in assay [4] was determined as 0.2.
